Results: patent US20100015637A1 (AbbVie / Abbott, published 2010)
One block for each molecule: values may come before it.

Legend:
[1] = target: human PlGF-1 comprising amino acids 1-137 produced in human embryonic kidney cells (human) (UniProt P49763); assay: Format 2 …, capture MAb264, detection Pb264; sFlt-1 2300 pmol/L (ratio 75)
[2] = target: human PlGF-1 comprising amino acids 1-137 produced in human embryonic kidney cells (human) (UniProt P49763); assay: Format 3 Quantikine ELISA, capture MAb264, detection Pb264; sFlt-1 307 pmol/L (ratio 10)
[3] = target: T1, human PlGF-1 fragment (comprising amino acids 17-131) produced in human embryonic kidney cells (human, UniProt P49763 35-221); assay: … sandwich, capture MAb826, detection pAb264; antigen 750 pg/mL
T1 sequence: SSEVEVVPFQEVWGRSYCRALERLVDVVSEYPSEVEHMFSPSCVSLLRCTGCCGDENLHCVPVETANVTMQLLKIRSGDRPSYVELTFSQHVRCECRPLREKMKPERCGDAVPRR

[4] = target: T2, CHO human PlGF-1 fragment (comprising amino acids 17-131; ATCC PTA-8540) (human, UniProt P49763 35-221); assay: as above
T2 sequence: T1 sequence

[5] = target: T3, human PlGF-1 comprising amino acids 1-137 produced in human embryonic kidney cells (human, UniProt P49763 19-221); assay: as above
T3 construct: Mature human PlGF-1 with 6xHis tag; also called HEK (1-137); full length HEK human PlGF-1 (1-137)
T3 sequence: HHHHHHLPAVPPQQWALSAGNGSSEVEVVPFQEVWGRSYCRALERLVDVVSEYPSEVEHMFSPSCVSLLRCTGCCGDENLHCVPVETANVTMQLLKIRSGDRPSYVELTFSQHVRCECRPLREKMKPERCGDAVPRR

[6] = target: T4, CHO human PlGF-1 comprising amino acids 1-137 (human PlGF-1-His (1-131), CHO 6305) (human, UniProt P49763 19-221, N-glycans at N21 (completely glycosylated) and N89 (partially glycosylated)); assay: as above
T4 construct: Mature human PlGF-1 with 6xHis tag (137 amino acids); also called CHO (1-137)
T4 sequence: T3 sequence

[7] = target: recombinant human PlGF-1 (comprising amino acids 1-131) expressed in E. coli (R&D Systems) (human) (UniProt P49763); assay: … sandwich, capture MAb826, detection pAb264; antigen 60 pg/mL
[8] = target: T2, CHO human PlGF-1 fragment (comprising …); assay: … sandwich, capture MAb255, detection MAb826; antigen 15 pg/mL
Outline: (§1)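 In a sandwich immunoassay, human PlGF-1 antigen preparations, including recombinant forms expressed in CHO cells, were tested at 0 to 1500 pg/mL. Magnetic microparticles carried a monoclonal anti-human PlGF-1 capture antibody, attached by passive coating and EDAC cross-linking, and a second monoclonal anti-human PlGF-1 antibody labeled with acridinium ester served for detection. At each antigen level, the chemiluminescent signal was read in relative light units (RLU).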

[9] = target: T4, CHO human PlGF-1 comprising amino acids …; assay: as above
Outline: as §1

[10] = target: recombinant human PlGF-1 (comprising amino acids 1-131) expressed in E. coli (R&D Systems) (human) (UniProt P49763); assay: … sandwich, capture MAb255, detection pAb264; antigen 60 pg/mL
[11] = target: recombinant human PlGF-1 (comprising amino acids 1-131) expressed in E. coli (R&D Systems) (human) (UniProt P49763); assay: … sandwich, capture MAb255, detection pAb264; antigen 0 pg/mL (blank)
[12] = target: T1, human PlGF-1 fragment (comprising amino …); assay: … sandwich, capture MAb255, detection MAb826; antigen 60 pg/mL
Outline: as §1

[13] = target: T2, CHO human PlGF-1 fragment (comprising …); assay: as above
Outline: as §1

[14] = target: T4, CHO human PlGF-1 comprising amino acids …; assay: as above
Outline: as §1

[15] = target: T1, human PlGF-1 fragment (comprising amino …); assay: … sandwich, capture MAb255, detection pAb264; antigen 1500 pg/mL
[16] = target: T2, CHO human PlGF-1 fragment (comprising …); assay: as above
[17] = target: T3, human PlGF-1 comprising amino acids …; assay: as above
[18] = target: T4, CHO human PlGF-1 comprising amino acids …; assay: as above

- % Inhibition [1]: 95%
- PlGF-1 Measured [1]: 39.7 pg/mL
- % Inhibition [2]: 32.6%
- PlGF-1 Measured [2]: 583 pg/mL
Molecule: native sFlt-1, isolated from human placental tissue (from UniProt P17948 27-687) (receptor)

- RLU [3]: 336000 RLU
- RLU [4]: 239000 RLU
- RLU [5]: 423000 RLU
- RLU [6]: 180000 RLU
- RLU [7]: 65500 RLU
B1: monoclonal antibody 2-826-335 (produced by murine hybridoma cell line 2-826-335, ATCC PTA-8539) (antibody, mouse IgG1, V domains shown)
VH: QVQLKQSGPGLVQPSQSLSITCTVSGFSLTTYGIHWVRQSPGKGLEWLGVMWSGGDTDYDAAFISRLSISKDNSKSQVFFKMNSLQANDTGIYYCARYRFYGMDYWGQGTSVTVSS
VL: AIQMTQSSSSFSVSLGDRVTITCKASEDIYNRFAWYQQKPGNAPRLLISGAASLEAGVPSRFSGSGSGQDYTLSITSLQTEDVATYYCQQYWSTPWTFGGGTKLEIKR
notes: also called MAb826

- RLU [8]: 13300 RLU
- RLU [9]: 14500 RLU
- RLU [10]: 161000 RLU
- RLU [11]: 14300 RLU
- RLU [12]: 57900 RLU
- RLU [13]: 42100 RLU
- RLU [14]: 42200 RLU
- RLU [15]: 1.62e+06 RLU
- RLU [16]: 1.25e+06 RLU
- RLU [17]: 2.14e+06 RLU
- RLU [18]: 1.05e+06 RLU
B2: monoclonal antibody 1-255-713 (produced by murine hybridoma cell line 1-255-713, ATCC PTA-8536) (antibody, mouse IgG2a, V domains shown)
VH: QVHLQQSGAELMKPGASVKISCKATGYTFSSYWIEWVKQRPGHGLEWIGEILPGSVSNNFNEKFKDKATLTADPSSNTAYIQVSSLTSEDSAVYYCARSTGFYYGGNYFDHWGQGTTLAVSS
VL: DVVMTQTPLSLPVSPGDQASISCRSSQSLVHSNGHTYLHWYLQKPGQSPKLLIYKVSNRFSGVPDRVSGSGSGTDFTLKISRVEAEDLGVYFCSQSTHVPPTFGGGTKLEIKR
notes: also called MAb255
